Experiments:
[1] = biological target: T1, HLA-G1 on K562 cells (K562-HLA-G) (human); assay: flow cytometry; IgG1 mAb on cells expressing HLA-G
T1 construct: also called cells expressing HLA-G
Description: Briefly, 1.5×10⁷ cells were washed 2 times with 1×PBS and resuspended in 7 mL of 1×PBS and incubated for 10 min. After incubation, 8 mL of fetal bovine serum (FBS) were added, cells were washed by centrifugation at 300×g for 5 min and resuspended at 1×10⁶ cells/mL in DMEM supplemented with 10% FBS. […] After incubation, 150 μL of staining buffer were added and cells were washed by centrifugation at 300×g for 5 min. Cells were resuspended in 200 μL of running buffer (staining buffer supplemented with 1 mM EDTA, 0.1% (v/v) pluronic acid) and washed by centrifugation at 300×g for 5 min. Cells were resuspended in 30 mL of running buffer and analyzed for antibody binding by flow cytometry.

[2] = biological target: T2, MHGW8 (B2m-3(G4S)-HLA-G1-G4S-Avi), soluble HLA-G1 extracellular domain (human, biotinylated (Avi tag) in the ligand blocking assay); assay: competition, flow cytometry: antibody titrated against MHGW8-dextramer binding to ILT4 on HEK293T cells (competitor ILT4)
T2 construct: also called HLA-G (MHGW8); recombinant biotinylated HLA-G1 (MHGW8)
Description: Cells were added (25,000 cells) and incubated for 30 min at 4° C. […] The resuspended mixture was analyzed for fluorescence signal by flow cytometry using an Intellicyt® iQue Screener Plus.

[3] = biological target: HLA-G on NCI-H2009-b2m target cells (human, UniProt P17693 25-338); assay: cell-based or functional assay

Row | Binder | Geomean fluorescence signal (maximum value for binding) [1] | EC50 [2] | Cytotoxicity, EC50 (M); T cell-mediated cytotoxicity against NCI-H2009-b2m cells, 72 hr, E:T 3:1 [3]
1 | MHGB665/MHGB732 (one printed row for both names), IgG1 mAb (antibody, V domains shown, tested as IgG1 mAb) VH: QVQLQQSGPGLVKPSQTLSLTCAISGDSVSSNSAAWNWIRQSPSRGLEWLGRTYYRSKWYNDYAVSVKSRITINPDTSKNQISLQLNSVTPEDTAVYYCAGDRRYGIVGLPFAYWGQGTLVTVSS VL: not shown | 632000 | – | –
2 | MHGB687 (antibody, human IgG1, kappa, V domains shown, IgG1 mAb) VH: QLQLQESGPGLVKPSETLSLMCTVSGGSITSSSYYWGWIRQPPGKGLEWIGNIYYSGTTYYNPSLKSRVTISVDTSKNQFSLKLSSVTAADTAVYYCAAGARDFDSWGQGSLVTVSS VL: not shown | 528000 | 1.86 nM | –
3 | HC3B124 (CD3B219-Fab-Fc x MHGB732-scFv-Fc) (bispecific antibody, human IgG1, lambda, L234A L235A) heavy: EVQLVESGGGLVQPGGSLRLSCAASGFTFNTYAMNWVRQAPGKGLEWVARIRSKYNNYATYYAASVKGRFTISRDDSKNSLYLQMNSLKTEDTAVYYCVRHGNFGNSYVSWFAYWGQGTLVTVSSASTKGPSVFPLAPSSKSTSGGTAALGCLVKDYFPEPVTVSWNSGALTSGVHTFPAVLQSSGLYSLSSVVTVPSSSLGTQTYICNVNHKPSNTKVDKKVEPKSCDKTHTCPPCPAPEAAGGPSVFLFPPKPKDTLMISRTPEVTCVVVSVSHEDPEVKFNWYVDGVEVHNAKTKPREEQYNSTYRVVSVLTVLHQDWLNGKEYKCKVSNKALPAPIEKTISKAKGQPREPQVYVYPPSREEMTKNQVSLTCLVKGFYPSDIAVEWESNGQPENNYKTTPPVLDSDGSFALVSKLTVDKSRWQQGNVFSCSVMHEALHNHYTQKSLSLSPG light: QTVVTQEPSLTVSPGGTVTLTCRSSTGAVTTSNYANWVQQKPGQAPRGLIGGTNKRAPGTPARFSGSLLGGKAALTLSGVQPEDEAEYYCALWYSNLWVFGGGTKLTVLGQPKAAPSVTLFPPSSEELQANKATLVCLISDFYPGAVTVAWKADSSPVKAGVETTTPSKQSNNKYAASSYLSLTPEQWKSHRSYSCQVTHEGSTVEKTVAPTECS scFv: DIVMTQSPDSLAVSLGERATINCKSSQSVLHSSNNKNYLTWFQQKPGQPPKLLIYWASTRESGVPDRFSGSGSGTDFTLTISSLQAEDVAVYYCHQYYSTPPTFGQGTKVEIKGGSEGKSSGSGSESKSTGGSQVQLQQSGPGLVKPSQTLSLTCAISGDSVSSNSAAWNWIRQSPSRGLEWLGRTYYRSKWYNDYAVSVKSRITINPDTSKNQISLQLNSVTPEDTAVYYCAGDRRYGIVGLPFAYWGQGTLVTVSSEPKSSDKTHTCPPCPAPEAAGGPSVFLFPPKPKDTLMISRTPEVTCVVVSVSHEDPEVKFNWYVDGVEVHNAKTKPREEQYNSTYRVVSVLTVLHQDWLNGKEYKCKVSNKALPAPIEKTISKAKGQPREPQVYVLPPSREEMTKNQVSLLCLVKGFYPSDIAVEWESNGQPENNYLTWPPVLDSDGSFFLYSKLTVDKSRWQQGNVFSCSVMHEALHNHYTQKSLSLSPG | – | – | 3.85e-12 M
4 | HC3B123 (CD3W246-Fab-Fc x MHGB732-LH-scFv-Fc) (bispecific antibody, human IgG1, kappa, L234A L235A) heavy: EVQLVESGGGLVKPGGSLRLSCAASGFTFSRYNMNWVRQAPGKGLEWVSSISTSSNYIYYADSVKGRFTFSRDNAKNSLDLQMSGLRAEDTAIYYCTRGWGPFDYWGQGTLVTVSSASTKGPSVFPLAPSSKSTSGGTAALGCLVKDYFPEPVTVSWNSGALTSGVHTFPAVLQSSGLYSLSSVVTVPSSSLGTQTYICNVNHKPSNTKVDKKVEPKSCDKTHTCPPCPAPEAAGGPSVFLFPPKPKDTLMISRTPEVTCVVVSVSHEDPEVKFNWYVDGVEVHNAKTKPREEQYNSTYRVVSVLTVLHQDWLNGKEYKCKVSNKALPAPIEKTISKAKGQPREPQVYVYPPSREEMTKNQVSLTCLVKGFYPSDIAVEWESNGQPENNYKTTPPVLDSDGSFALVSKLTVDKSRWQQGNVFSCSVMHEALHNHYTQKSLSLSPGK light: DIQMTQSPSSLSASVGDRVTITCRARQSIGTAIHWYQQKPGKAPKLLIKYASESISGVPSRFSGSGSGTDFTLTISSVQPEDFATYYCQQSGSWPYTFGQGTKLEIKRTVAAPSVFIFPPSDEQLKSGTASVVCLLNNFYPREAKVQWKVDNALQSGNSQESVTEQDSKDSTYSLSSTLTLSKADYEKHKVYACEVTHQGLSSPVTKSFNRGEC scFv: DIVMTQSPDSLAVSLGERATINCKSSQSVLHSSNNKNYLTWFQQKPGQPPKLLIYWASTRESGVPDRFSGSGSGTDFTLTISSLQAEDVAVYYCHQYYSTPPTFGQGTKVEIKGGSEGKSSGSGSESKSTGGSQVQLQQSGPGLVKPSQTLSLTCAISGDSVSSNSAAWNWIRQSPSRGLEWLGRTYYRSKWYNDYAVSVKSRITINPDTSKNQISLQLNSVTPEDTAVYYCAGDRRYGIVGLPFAYWGQGTLVTVSSEPKSSDKTHTCPPCPAPEAAGGPSVFLFPPKPKDTLMISRTPEVTCVVVSVSHEDPEVKFNWYVDGVEVHNAKTKPREEQYNSTYRVVSVLTVLHQDWLNGKEYKCKVSNKALPAPIEKTISKAKGQPREPQVYVLPPSREEMTKNQVSLLCLVKGFYPSDIAVEWESNGQPENNYLTWPPVLDSDGSFFLYSKLTVDKSRWQQGNVFSCSVMHEALHNHYTQKSLSLSPG | – | – | 3.24e-12 M
5 | MHGB668 (antibody, human IgG1, kappa, V domains shown, IgG1 mAb) VH: QVQLQQSGPGLVKPSQTLSLTCAISGDSVSNNSAAWNWIRQSPSRGLEWLGRTYYRSKWYNDYAVSVKSRITINPDTSKNQFSLQLNSVTPEDTAVYYCARYGSGTLLFDYWGQGTLVTVSS VL: not shown | 591000 | – | –
6 | HC3B214 (CD3W246-Fab-Fc x MHGB737-scFv-Fc) (bispecific antibody, human IgG1, kappa, L234A L235A) heavy: EVQLVESGGGLVKPGGSLRLSCAASGFTFSRYNMNWVRQAPGKGLEWVSSISTSSNYIYYADSVKGRFTFSRDNAKNSLDLQMSGLRAEDTAIYYCTRGWGPFDYWGQGTLVTVSSASTKGPSVFPLAPSSKSTSGGTAALGCLVKDYFPEPVTVSWNSGALTSGVHTFPAVLQSSGLYSLSSVVTVPSSSLGTQTYICNVNHKPSNTKVDKKVEPKSCDKTHTCPPCPAPEAAGGPSVFLFPPKPKDTLMISRTPEVTCVVVSVSHEDPEVKFNWYVDGVEVHNAKTKPREEQYNSTYRVVSVLTVLHQDWLNGKEYKCKVSNKALPAPIEKTISKAKGQPREPQVYVYPPSREEMTKNQVSLTCLVKGFYPSDIAVEWESNGQPENNYKTTPPVLDSDGSFALVSKLTVDKSRWQQGNVFSCSVMHEALHNHYTQKSLSLSPGK light: DIQMTQSPSSLSASVGDRVTITCRARQSIGTAIHWYQQKPGKAPKLLIKYASESISGVPSRFSGSGSGTDFTLTISSVQPEDFATYYCQQSGSWPYTFGQGTKLEIKRTVAAPSVFIFPPSDEQLKSGTASVVCLLNNFYPREAKVQWKVDNALQSGNSQESVTEQDSKDSTYSLSSTLTLSKADYEKHKVYACEVTHQGLSSPVTKSFNRGEC scFv: not shown | – | – | 1.38e-10 M
7 | HC3B216 (CD3B376-Fab-Fc x MHGB737-scFv-Fc) (bispecific antibody, human IgG1, lambda, L234A L235A) heavy: QVQLQQSGPRLVRPSQTLSLTCAISGDSVFNNNAAWSWIRQSPSRGLEWLGRTYYRSKWLYDYAVSVKSRITVNPDTSRNQFTLQLNSVTPEDTALYYCARGYSSSFDYWGQGTLVTVSSASTKGPSVFPLAPSSKSTSGGTAALGCLVKDYFPEPVTVSWNSGALTSGVHTFPAVLQSSGLYSLSSVVTVPSSSLGTQTYICNVNHKPSNTKVDKKVEPKSCDKTHTCPPCPAPEAAGGPSVFLFPPKPKDTLMISRTPEVTCVVVSVSHEDPEVKFNWYVDGVEVHNAKTKPREEQYNSTYRVVSVLTVLHQDWLNGKEYKCKVSNKALPAPIEKTISKAKGQPREPQVYVYPPSREEMTKNQVSLTCLVKGFYPSDIAVEWESNGQPENNYKTTPPVLDSDGSFALVSKLTVDKSRWQQGNVFSCSVMHEALHNHYTQKSLSLSPGK light: QSALTQPASVSGSPGQSITISCTGTSSNIGTYKFVSWYQQHPDKAPKVLLYEVSKRPSGVSSRFSGSKSGNTASLTISGLQAEDQADYHCVSYAGSGTLLFGGGTKLTVLGQPKAAPSVTLFPPSSEELQANKATLVCLISDFYPGAVTVAWKADSSPVKAGVETTTPSKQSNNKYAASSYLSLTPEQWKSHRSYSCQVTHEGSTVEKTVAPTECS scFv: not shown | – | – | 1.9e-09 M
